Assay results published in the DeepSol protein solubility set.

Assay: soluble on expression in E. coli; label from the status in PepcDB or PDB records

Sequence	soluble on expression in E. coli
MTVYHFVGIKGTGMSPLAQILHDNGYTVQGSDIEKFIFTQTALEKRNITILPFSAENIKPGMTVIAGNAFPDTHPEIEKAMSEGIPVIRYHKFLGDYMKKFTSVAVTGAHGKTSTTGLLAHVIQNAKPTSFLIGDGTGQGNENSEYFVFEACEYRRHFLSYQPDYAIMTNIDFDHPDYFSSIDDVFDAFQEMALQVNKGIIACGDDEHLPKIHANVPVVYYGTGEENDFQARNIVKSTEGTTFDVFVRNTFYDTFYIPAYGHHNVLNSLAVIALCHYEEIDSSIIKHALKSFGGVKRRFNEKQLGDQVLIDDYAHHPTEIKVTIEAARQKYPDREIVAVFQPHTFTRTQQFLDEFAESLSGADCVYLCDIFGSARENAGKLTIGDLQGKIHNAKLIEEDDTSVLKAHDKAVLIFMGAGDIQKYMRAYENVMA	not soluble
MTYLLLDYFDEKFPDEKAVKEMKPFRRHRWFFKEGTTNYSHSERNKLPEGAAYAGHRTPLISGECKVYGCWPNGYDNVGEEEWAKIPTDARQKFKAALNDTAEIVVSGIECRRSFQYIDDKLLSAMDNYSELEKLPVAYSFSATKFYPSLIPFLETRWTATKLDWKNHGQNNLDLSRTHLREITLDGEGLKSVSLPESCRTISFSSTLSPELKVYSPDGGSNLTLKIELEADHVPDVGLPQLEILVLDRAVKLDLLPVTNLYPNLYYLRICGKPGYLSNISSLRNLKTLEVLSLEEIFGFTAEEFPTPGTCPLLNTLWMESIPEEAGKQIKKKYKGKITELDIRKLRKPEWLAENLDNPLRHWDGSEFVPPAKFKKAVVIYRNARRDALVAANQYLIDRDAALLQNRLEQTGKEFVIAFNKLDGKSGFIETEEREDLCAAFQVILDAVDSSVNFLGFTMNHDRIWEIMNEHRDW	not soluble
MVDIEPDRVYVFTPDGHAIDLPKNATPLDFAYRVHTEIGHNCRGAKINGRIVPLNYSLQTGEQVEIITSKHGTPSRDWLEHHHHHH	not soluble
MVDSYDDSLDGEKSKTQVKRELHALVDLGERLTTLKADVLAKLPLTDALRKALAEAPKHTANIARKRHILFIGKLMRDQDQEAILVLLDQLDASTRQYNERFHNLERWRDRLIAGDDADLEKFVIEYPDADRQQLRSLIRQAQHEVARNKPPATSRKIFKYIRELDELQ	soluble
MVEARSRHEFVALQLRQRIMQRQYAVGESLPSESMLCAEFEVSRGPVRQALATLKNEGLIQLSQGKPAVVRSHDITQTLDTFTPFSQWARRTGRVAGSRTLEISRRRVSEPAASALGSAPDDFVVEVLRVRLLDGEPTMIERSTFTDRVGSLLFDFDIDTGSITDYLTSRGVRFESMEHVLDAVAATGVDAENLRIDPGSPLLRERRTSRDQNGDTFEYADDRYRPDLVAFSIVNARTIDPRLPSDDGNGA	not soluble
MVEYVNQAHEDITGIARDKSIGTNLRDLTFFRQHNALAEQTLAKIFRGDQAKGEVQFSRTDGSRYWLKYIVSQFITDRGNHYALVSGEENSDEHNYKAELEHHHHHH	not soluble
MVGCLVVLLGAARKPARIFNLTPASASRYDSIHLCSLRTSLSCH	not soluble
MVGGVEELSIEQLASSISTYKEQLEQNFVCGLEFRIGEEKLNVRQLLSEDPRNSEYADMEKELKEVIALTEEVLATAKQNEISLSDAGVSAEATPGSPDLEGAWEKTGLRNDPIHEGKFPVGTKVQAVFSDDGEWYDATIEAHTANGYFVAYDEWGNKEEVDPDNVRPIEQNAIVEAERLAQATKNALKRKIEKAASSDYQTKTLPAKLKIDPNDPEDVKIAKRKKIHAFKSKARFEQLEVVQNKKQNDWQQFQTTKAKTKKVGFFTGRKKESIFKSPEDPFGKVGVTGSGKGLTDFQKREKHLHLKSGNAEGTDE	soluble
MVGIRRNKGHGEATIFTLRELADATNNFSTECLLGRGGFGSVYKAFLNDRQVVAVKQLDLNGLQGNREFLVEVLMLSLLHHPNLVKLFGYCVDGDQRLLIYEYMPLGSLEDRLHDLRPGQEPLDWTTRMKIAADAAAGLEYLHDEAIPAVIYRDIKPSNILLGEGYNAKLSDFGLAKLGPVGDKTHVTTRVMGTHGYCAPEYLSTGKLTIKSDIYSFGVVFLELITGRRALDSNRPPDEQDLVAWARPLFKDQRKFPKMADPSLHGHFPKRGLFQALAIAAMCLQEKAKNRPSIREVAVALSYLASQTHESQNTAARHTLPGPSVPRVLDNQINQDTSLPSQHGVHMPPLAGTDHMVQEVKENCRSSSHRPGRGRVTPNGADRERALAEANVWVEAWRRQEKTSKMR	not soluble
MVHDSALPFDALPMPPQGREGFEECPYLDSQWVADTNGQRMTGQGVDTRFDTPACVFWSYPEAPQATVMVRHMPSEEEAIRVVDWAAPIDTTEPAEEPDGWSGGRAGHEEGAVYAVQKGPVAVVVWSNQQQSLKAELMAKEAIARLGL	soluble
MVHVKDVLADQLLANANDPSWYMPFSDAVKDLSEREAFWKPNEECNSIAEIVQHLLYWNSTWQTRYKESHVNAVPAIGDNNKSFMLSDNQTFDELREKLLEKLLQWQTLINEEKVESDVVGFPVSAKWWEVLANVTTHNAYHIGQIIYIRKLQQSFDNK	not soluble
MVINIRRSRPDEGDKLTAIWCRSVDATHDFLTKAYRKELEEMVRAFLPEAPLWVAVSTEDQPIAFMLLTGDHMDALFVDPDVRGCGVGKLLIEHALSLTPKLTTNVNEQNEQAVGFYQKMGFRVTGRSETDDLGQPYPLLNLMYEQQAEADYD	not soluble
MVIRRCEKMEEETWKLKIGMCIQAKDFYSKRTDCSVHRPDVGGGLITEGNGYRVVVHDQCEEPNPFIIATTKQTHFGVTHSYIEFSNSNTGAPENIPDCSKHILISVYCDQEASGLDFHTLKYVESNYLHITVKYDTSCINHLGVNYSFMNECERKLTSIYETDTLTCGAKDIQTRDKYLKTCTNTKFDRSVYKTHMQKSKILHVKTELE	not soluble
MVISLKNRNFLKLLDYTPAEIQHLIDLAIELKAAKKAGCEKQTLIGKNIALIFEKTSTRTRCAFEVAAFDQGAQVTYLGPSGSQIGHKESMKDTARVLGRMYDGIEYRGFGQHIVEELGEYAGVPVWNGLTDEFHPTQILADLMTMLEHAPGKTLPELSFAYLGDARNNMGNSLMVGAAKMGMDIRLIAPKSFWPDAALVAQCREIASVTGARITLTESVEDGVHGVDFLYTDVWVSMGEPKEAWAERVSLMTPYQVNQQVVNATGNPDVKFMHCLPAFHNEHTKVGREIEMAYGLKGLEVTEEVFESAGSIVFDEAENRMHTIKAVMVATLGD	not soluble
MVITLSRLYVHPVKSMRGLQLSHAQVSRSGLAFDRVFMITEPDGMFITARQYPKMVMFTPALMADGLYLTAPDGESASIRFNDFLANPAPTEVWGNHFTALIAPEAINSWLSGYFQRDVQLRWVGTELTRRVKPLPEVPLSFADGFPYLLINEASFKDLQQRCPASIKLEQFRPNLVITGTTAFAEDCWQVIRIGDITFDLVKPCSRCVLTTVSVERGQKHPAGEPLRTLQTFRTAENGDVDFGQNMVARNSGIIRVGDEVEVLITKPPRPYGAGAVVESLSAPQDQSKTVSIEYNGIRFNGNNQQILLEQLEQQNIRIPYSCRAGICGSCRVTLLTGDVAALKKSAVGNDGTILCCSCIPKGDISLSGK	not soluble
MVKAVIFTDFDGTVTLEDSNDYLTDTLGFGKEKRLKVFEGVLDDTKSFRQGFMEMLESIHTPFPECIKILEKKIRLDPGFKDTFEWAQENDVPVIVVSSGMKPIIKVLLTRLVGQESIHKIDIVSNEVEIDAHDQWKIIYKDESPFGHDKSRSIDAYKKKFESTLKAGEQRPVYFYCGDGVSDLSAAKECDLLFAKRGKDLVTYCKKQNVPFHEFDTFKDILASMKQVLAGEKTVAELMEN	soluble
MVKEPGGKHVLCVGAAVLDTLFRVADMPKGEGKVLPYEVLQIAEGMASSAAYAVHRMGGRASLWGAVGDDETGTRILRDLSESGIDTSGMTVAPGARSALSTIIIDNRGERLIVPFYDHRLHEKKRACTPEDIALFDAVLVDVRWPELALDVLTVARALGKPAILDGDVAPVETLEGLAPAATHIVFSEPAATRLTGLETVKDMLPVLHARYPQTFIAVTAGPAGCWWTEADDPTVHFQTTMQVEAVDTLAAGDIFHGTFALAMAEGMQSRAAVRLSSVAAALKCTVFGGRIGAPTREETEEAMRQWLERESEPALRAS	soluble
MVKIGVCGPVGSGKTALIEALTRHMSKDYDMAVITNDIYTKEDAEFMCKNSVMPRERIIGVETGGCPHTAIREDASMNLEAVEEMHGRFPNLELLLIESGGDNLSATFNPELADFTIFVIDVAEGDKIPRKGGPGITRSDLLVINKIDLAPYVGADLKVMERDSKKMRGEKPFIFTNIRAKEGLDDVIAWIKRNALLEDLEHHHHHH	soluble
MVKQRSELLFLYDVQWANPNGDPVDGNKPRIDEETGKNIVTDVRLKRTIRDYLYEYRHQEIFVREIAQDDDYIQDAKARAEDFLVKDGEKLDKSKLTLSEMKKIINDEVLRQCIDVRLFGVTLPIEKSSKEKSSITHTGPVQFKMGQSLHRVKLEYIKGTGAFASGGQMTQKTFREEYVLPYSLIAFYGVINETAARFTRLTEEDVELLVDAMWEGTKNLISRSKVGHVPRLLLRVVYQEPHFHIGELDKYISLHTEKAEEEIRDAQDYVLDVSRLIEVLAREKEKIANIELRQDERLVCNENLVDRLRQEGIVVDIR	not soluble
MVKVGIIGGSGLEDPNILLDPVTVAVDTPYGKPSDDVVEGTINGVECVLLARHGRKHDIMPGNVNFRANLWALYSRGVDVIIASTACGSLQENVEPGHLLFPDSVFDRTTGRQSTFFDGSYDQAPGVCHIQAHPTYNEKLRQVLISTAERCQLVHHRTGFGVCIEGPRFSTKAESMVFKSWGASLVNMTMMPECILAKELGIPYATTALVTDYDCWKEEDHVTASSVMKVFAANVEKAKTLFVEAVGEIGKIDWSAEILKLKTEARESVMISPDVVIPFLTTDNQKKF	not soluble
MVKVIFFDLDDTLVDTSKLAEIARKNAIENMIRHGLPVDFETAYSELIELIKEYGSNFPYHFDYLLRRLDLPYNPKWISAGVIAYHNTKFAYLREVPGARKVLIRLKELGYELGIITDGNPVKQWEKILRLELDDFFEHVIISDFEGVKKPHPKIFKKALKAFNVKPEEALMVGDRLYSDIYGAKRVGMKTVWFRYGKHSERELEYRKYADYEIDNLESLLEVLARESSSNKKVHPPRQQI	soluble
MVLAGGVGKRLLPLTRERPKPYLPLAGKPLYMYAVEQVAMVRSLLDRAVMVTPPGHPTPPGSLPSWLDTVEQQGEGVEAGLATALKRLGGGEEVVVSFVGYLARPNTLVRHVLDFYSVTRYKLVLALAPVTRGSESFGFVDADPSTGRVLGFSGSREEWMAGRGRVFAGVLAGDPEALEVLAGEGFVEGINTLARRGLVGSVVWPGEWLEVGYPCDLLEAPRLVVEAWAAVISAKARVARSSVIQGGVVIEEDAEVGEGAVVEGPAYLGRGAVVGRNSVVGPGVVLEEGAVVGDLVSIERSVMLERAEASGPSRLEGVVIGDGAYIAPLAAATNREGCTVVAPKTRLGPRATLEPGKTYTLEHHHHHH	not soluble
MVLDQGDVISRINEGAISSSLEDLAKETGKEVRFVTIHRLDYGETPESFAQALFEKWFPSKEAQANQILLVLDTVTNGTAIITGDEVKPLLTDTIANSVAEETLAAPLRDGNKYNQAFLDASDRLVAVLSGQPDPGPPQIVDKLEHHHHHH	soluble
MVLRAKLLSWQEGVGSKTFEFDVDVEPRSYVISKVSQLSPIIASEDLTVCEGEVAVVGTRVIEIPENTVVRPVAAISHANGFVADVIECGAPGMVEDEKCINHAVFIPTRSGDVKEGDLLGMLRINFVRTGLLSRVILEHHHHHH	not soluble
